These are literature values, as cited in patent US7449311B2, “Method of producing macedocin by culturing Streptococcus macedonicus” (Vrije Universiteit Brussel, priority 2001, dated 2008).

Read-outs that look alike come from different tables or passages of the source.

Consider “SA-FF22: lantibiotic isolated from pathogenic Streptococcus pyogenes FF22 (SEQ ID NO 2) (GKNGVFKTISHECHLNTWAFLATCCS; Streptococcus pyogenes)”, for which the loss of activity (at a pH of 7 (Tagg et al., 1978)) is given as 50% and the loss of activity (stored for 4 weeks at room temperature (Tagg et al., 1973)) is 75%.
